Results taken from patent US7250488 (Kyowa Kirin, dated 2007).

T1: mouse β-catenin (mouse, UniProt Q02248 2-781)
T1 construct: mature; also called ^35S-labeled β-catenin
T1 sequence (looked up): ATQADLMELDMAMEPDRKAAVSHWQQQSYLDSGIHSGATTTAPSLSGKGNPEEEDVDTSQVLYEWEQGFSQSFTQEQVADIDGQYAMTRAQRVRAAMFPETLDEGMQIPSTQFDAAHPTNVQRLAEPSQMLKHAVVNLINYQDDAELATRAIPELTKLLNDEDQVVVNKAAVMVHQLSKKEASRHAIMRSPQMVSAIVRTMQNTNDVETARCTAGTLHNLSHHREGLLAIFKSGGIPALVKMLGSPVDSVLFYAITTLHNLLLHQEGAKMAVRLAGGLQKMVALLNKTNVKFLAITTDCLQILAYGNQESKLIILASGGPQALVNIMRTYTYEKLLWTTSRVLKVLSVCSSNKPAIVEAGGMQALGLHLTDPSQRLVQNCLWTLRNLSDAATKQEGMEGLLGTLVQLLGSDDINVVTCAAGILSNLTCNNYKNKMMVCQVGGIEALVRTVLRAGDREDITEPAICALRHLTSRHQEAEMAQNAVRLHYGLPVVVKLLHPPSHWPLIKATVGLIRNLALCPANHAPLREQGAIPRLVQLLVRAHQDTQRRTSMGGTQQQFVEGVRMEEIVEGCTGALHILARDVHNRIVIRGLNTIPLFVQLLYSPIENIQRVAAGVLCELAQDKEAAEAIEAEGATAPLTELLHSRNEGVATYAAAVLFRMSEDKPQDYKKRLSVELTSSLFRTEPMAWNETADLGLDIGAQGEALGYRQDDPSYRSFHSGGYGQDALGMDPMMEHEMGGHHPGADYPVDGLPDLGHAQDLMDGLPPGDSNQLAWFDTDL

T2: N-terminal portion of mouse β-catenin (residues 1 to 140), ^35S-labeled (mouse, UniProt Q02248 1-140)
T2 construct: range 1-140; Translated in vitro with ^35S-methionine
T2 sequence (looked up): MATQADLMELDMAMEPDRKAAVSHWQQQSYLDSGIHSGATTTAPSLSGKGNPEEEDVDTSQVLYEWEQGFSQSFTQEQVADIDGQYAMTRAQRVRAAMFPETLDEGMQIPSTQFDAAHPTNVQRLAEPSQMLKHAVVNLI

T3: C-terminal portion of mouse β-catenin (residues 665 to 782), ^35S-labeled (mouse, UniProt Q02248 665-781)
T3 construct: range 665-782; Translated in vitro with ^35S-methionine
T3 sequence (looked up): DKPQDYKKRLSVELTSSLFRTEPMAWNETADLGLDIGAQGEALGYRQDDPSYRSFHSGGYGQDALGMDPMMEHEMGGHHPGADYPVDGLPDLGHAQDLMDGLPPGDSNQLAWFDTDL


Assays:
[1] = molecular target: T4, GAL4-β-catenin fusion protein (GAL4 BD fused with mβ-catenin arm, residues 141 to 664) (yeast; mouse, UniProt P04386 1-147; Q02248 141-664); assay: yeast two-hybrid, β-galactosidase activity
T4 construct: Two-hybrid bait expressed in yeast HF7C; also called bait for mβ-catenin arm
From the text: Specifically, both mouse fetal cDNA library for the two-hybrid system and plasmid GAL4-β-catenin prepared in (1) were introduced in yeast *Saccharomyces cerevisiae* HF7C strain (Clontech). HF7C strain is a yeast strain that is tryptophan-, leucine-, and histidine-auxotrophic, and, on the chromosome, has as a reporter gene a gene involved in histidine biosynthesis, HIS3, which has been ligated downstream of GAL1 promoter to which GAL4 BD can bind, as well as has of *E. coli*-derived β-galactosidase gene lazZ ligated downstream of a nucleotide sequence where GAL4 BD can bind (Gene, 212, 197 (1998)). A transformant containing both plasmid GAL4-β-catenin and cDNA clone for protein capable of binding to mβ-catenin arm and expresses the respective fusion proteins, is non-auxotrophic for histidine and is positive in β-galactosidase activity, because GAL4 BD is placed adjacent to GAL4 AD due the binding between mβ-catenin arm and the binding protein, the transcriptions of HIS3 gene and lacZ gene, downstream of the nucleotide sequence to which GAL4 BD binds, are activated. Four clones were finally selected, as colonies positive in β-galactosidase activity from 2.3 ×10^7 transformants which were grown on a medium without any of leucine, histidine, and tryptophan.
Each of these expression plasmids for fusion proteins of GAL4 AD and ICAT mutants was introduced together with the bait plasmid GAL4-β-catenin for mβ-catenin arm into yeast HF7C strain in the same manner as in Example 1, and then the binding of each ICAT mutant with β-catenin was evaluated based on the presence of β-galactosidase activity in the transformants.

mouse β-catenin [2] = molecular target: T1, mouse β-catenin; assay: immunoprecipitation with anti-ICAT antibody from mouse brain lysate, Western blotting with anti-β-catenin antibody
Procedure: In the experiment for the detection of ICAT with immunoprecipitation and Western blotting using mouse brain lysate in Example 6, immunoprecipitation was carried out with the anti-ICAT antibody, and then Western blotting was performed with the anti-β-catenin monoclonal antibody (Transduction Laboratory; animal used for the immunization is mouse) as a primary antibody for the detection. […] However, when, in this experiment, the anti-ICAT antibody, which had previously been reacted to GST/ICAT, was used in the immunoprecipitation, the band of β-catenin was not detected because of inhibition of immunoprecipitation.

[3] = molecular target: T2, N-terminal portion of mouse β-catenin …; assay: GST/ICAT pull-down of ^35S-labeled in vitro translated protein, autoradiography
Procedure: (§1) The GST/ICAT-expressing E. coli as well as control GST-expressing E. coli prepared in Example 3 were cultured to obtain the respective bacterial lysates. Glutathione-Sepharose 4B (Amersham-Pharmacia Biotech) was added to these bacterial lysates, and […] or GST was adsorbed on it to isolate it. The GST/ICAT- or GST-adsorbed glutathione-Sepharose 4B was reacted to the above-mentioned ^35S-labeled β-catenin in buffer A containing 0.1% Triton X-100 at 4° C. for 2 hours. After the glutathione-Sepharose 4B was washed well with buffer A and then SDS-PAGE sample buffer was added thereto to elute the bound protein to the sample buffer. The eluate was used as a sample in SDS-PAGE in which the gel concentration was 15% and then the gel was visualized by autoradiography. […] Accordingly, it has been verified that GST/ICAT directly binds to β-catenin in vitro and that the site responsible for the binding to β-catenin is located within the ICAT moiety of GST/ICAT.
(§2) The region of β-catenin responsible for the binding with ICAT was determined as follows. DNA fragments encoding the region of armadillo domain of mouse β-catenin (residues 141 to 664 in the amino acid sequence), N-terminal portion (residues 1 to 140 in the amino acid sequence), and C-terminal portion (residues 665 to 782 in the amino acid sequence) were amplified by PCR. […]

[4] = molecular target: T3, C-terminal portion of mouse β-catenin …; assay: as above
Procedure: as §1, §2

mouse β-catenin [5] = molecular target: T1, mouse β-catenin; assay: GST fusion pull-down in vitro, as in Example 8
Procedure: as §1, with “Analysis of Binding Between ICAT and β-catenin (1) Detection of the Direct Binding In Vitro The direct binding of ICAT to β-catenin was verified as follows. ^35S-labeled β-catenin was translated and synthesized from mouse β-catenin mRNA in vitro by using ^35S-labeled methionine TNT-reticulocyte lysate system (Promega). The GST/ICAT-expressing” for “The GST/ICAT-expressing”, “of GST/ICAT. […]” for “of GST/ICAT.”

Row | Binder | binding result [1] | further results
1 | RTYAGVVSSQLSQLPQHSIDQGAEDVVMAFSRSETEDRRQ (other, not shown: large carriers, Mouse ICAT deletion mutant used as a two-hybrid prey; also called (e) ICAT(42-81)) [ICAT (42-81), GAL4 AD fusion] | no binding | 
2 | MNREGAPGKSPEEMYIQQKVRVLLMLRKMGSNLTASEEEFL (other, not shown: large carriers, Mouse ICAT deletion mutant used as a two-hybrid prey; also called (b) ICAT(1-41)) [ICAT(1-41), GAL4 AD fusion] | no binding | 
3 | mouse ICAT (inhibitor of β-catenin and TCF) (other, Untagged full-length mouse ICAT (81 amino acids); It was tested expressed from pMKITneo in COS-7 and other animal cells, translated in vitro in reticulocyte lysate, and as the endogenous protein of mouse brain; also called 9-kDa protein) MNREGAPGKSPEEMYIQQKVRVLLMLRKMGSNLTASEEEFLRTYAGVVSSQLSQLPQHSIDQGAEDVVMAFSRSETEDRRQ |  | binding result (mouse β-catenin [2]): binds
4 | GST/ICAT (fusion protein between GST and ICAT) (other, Mouse ICAT cDNA was subcloned between EcoRI/SalI of pGEX5X-1, so ICAT sits on the C-terminal side of GST; Expressed in E. coli; not shown: glutathione S-transferase (GST) as encoded by vector pGEX5X-1) MNREGAPGKSPEEMYIQQKVRVLLMLRKMGSNLTASEEEFLRTYAGVVSSQLSQLPQHSIDQGAEDVVMAFSRSETEDRRQ |  | binding result [3]: no binding; binding result [4]: no binding
5 | ICAT(E37-39A) expressed as a GST fusion protein (other, Expressed in E. coli; not shown: glutathione S-transferase (GST); made in the same manner as GST/ICAT) MNREGAPGKSPEEMYIQQKVRVLLMLRKMGSNLTASAAAFLRTYAGVVSSQLSQLPQHSIDQGAEDVVMAFSRSETEDRRQ |  | binding result (mouse β-catenin [5]): no binding

The next lines start with results.

Row | binding result [1] | Binder | further results
6 | no binding | RVLLMLRKMGSNLTASEEEFLRTYAGVVSSQLSQLPQHSID (other, not shown: large carriers, Mouse ICAT deletion mutant used as a two-hybrid prey; also called (g) ICAT(21-61)) [ICAT (21-61), GAL4 AD fusion] | 
7 | no binding | ICAT(E37-39A), GAL4 AD fusion (other, not shown: large carriers, The glutamic acid residues 37, 38 and 39 are converted to alanine; Used as a two-hybrid prey; also called (j) ICAT(E37-39A)) MNREGAPGKSPEEMYIQQKVRVLLMLRKMGSNLTASAAAFLRTYAGVVSSQLSQLPQHSIDQGAEDVVMAFSRSETEDRRQ | 
8 | no binding | ICAT(21-81), GAL4 AD fusion (other, not shown: large carriers, Mouse ICAT deletion mutant used as a two-hybrid prey; also called (d) ICAT(21-81)) RVLLMLRKMGSNLTASEEEFLRTYAGVVSSQLSQLPQHSIDQGAEDVVMAFSRSETEDRRQ | 
